In patent US20250332264A1, “GhR-BINDING PEPTIDE AND COMPOSITION COMPRISING SAME” (priority 2021, published 2025):
Starred links: 1 amine or outer side, 2 acyl side, 3 side chain; linkers in the order of their positions; H or OH if unused. Positions of bridges follow the written chain, without caps; N, C: chain ends. Non-standard residues stand in square brackets, D forms with d. Groups on a side chain read outwards from the residue. *: point of attachment. KCOpipzaa = N6-(4-(carboxymethyl)piperazine-1-carbonyl)-L-lysine, O=C(NCCCC[C@H](N[*:1])C(=O)[*:2])N1CCN(CC(=O)[*:3])CC1; A4pipaa = 4-amino-1-(carboxymethyl)piperidine-4-carboxylic acid, O=C(C1(N[*:1])CCN(CC(=O)[*:3])CC1)[*:2]; Trp(1-CH2CO) = O=C([C@H](Cc1cn(CC(=O)[*:3])c2ccccc12)N[*:1])[*:2]; Trp(5-OMe) = COc1ccc2[nH]cc(C[C@H](N)C(=O)O)c2c1; Butanoyl(4-(4-I-phenyl)) = O=C(CCCc1ccc(I)cc1)*; Trp(5-OH) = N[C@@H](Cc1c[nH]c2ccc(O)cc12)C(=O)O; Phe(4-COOH) = N[C@@H](Cc1ccc(C(=O)O)cc1)C(=O)O; C16 diacid = O=C(O)CCCCCCCCCCCCCCC(=O)*; NMeK = CN[C@@H](CCCCN)C(=O)O; Aib = CC(C)(N)C(=O)O; Sar = CNCC(=O)O

T1: Recombinant human GhR-Fc protein (R&D Systems) (human, UniProt P10912 19-264, limits assumed)
T1 construct: Bought from R&D Systems; Amine-coupled to a CM5 chip in the SPR assay; also called hGhR; recombinant human GhR protein fused to Fc portion of human IgG; not shown: Fc portion of human IgG
T1 sequence (looked up): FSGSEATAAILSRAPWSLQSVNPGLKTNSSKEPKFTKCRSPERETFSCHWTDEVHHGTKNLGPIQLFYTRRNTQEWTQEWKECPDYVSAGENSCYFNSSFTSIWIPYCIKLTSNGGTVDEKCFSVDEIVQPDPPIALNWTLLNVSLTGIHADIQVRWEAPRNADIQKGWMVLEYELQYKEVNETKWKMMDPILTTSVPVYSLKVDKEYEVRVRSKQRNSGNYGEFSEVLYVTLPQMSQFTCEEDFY


Molecular target: T1, Recombinant human GhR-Fc protein (R&D …)
Assay: SPR, Biacore T200, single-cycle kinetics, GhR-Fc immobilised on CM5
Procedure: SPR assay was performed using Biacore T200 (cytiva: Former GE Healthcare). After the equilibration of Series S Sensor Chip CM5 (produced by cytiva: Former GE Healthcare) with Running Buffer (HBS-EP with 1% (v/v) DMSO), an EDC/NHS mixture was injected at a flow rate of 10 μL/min for 7 minutes to thereby activate the functional groups on sensor chip. Recombinant human GhR-Fc protein (R&D Systems) in 10 mM Acetate (pH4.0) was injected immobilized to at a flow rate of 5 μL/min. It took 7 minutes to immobilize the GhR on the substrate surfaces of the sensor chip. Then Ethanolamine was injected at a flow rate of 10 μL/min for 7 minutes. 1M Ethanolamine (aq.) was injected at a flow rate of 10 μL/min for 420 seconds for capping. 10 mM Peptides in DMSO were diluted to obtain 10 uM with Running Buffer, and prepared 100 nM, 50 nM, 25 nM, 10 nM, 5 nM of each peptide solutions (Peptide Samples).
Using these Peptide Samples, kinetics of peptides against human GhR-Fc protein were measured. The method adopted for sample measurement was a single-cycle kinetics method. The analysis was conducted using the evaluation software provided with Biacore T200. A DMSO correction curve obtained by solvent correction measurements was applied for the analysis. Kinetics fitting was done on the difference data obtained by subtracting the baseline data from sample measurement data. KD values were calculated based on the association rate constant (ka) and dissociation rate constant (kd).

Kd [nM] | Binder
2.59 | {CH2CO}-Y[NMeK]VVSN[Trp(1-CH2CO)][Phe(4-COOH)]K[Trp(5-OH)][Aib]VCK([Glu-Glu-C16 diacid])-NH2 (thioether N-13; lactam 2-7, also called Compound No. 24) [GhR_PD_232]
1.71 | {CH2CO}-Y[NMeK]VVSN[Trp(1-CH2CO)]YK[Trp(5-OH)][Aib]VCG-NH2 (thioether N-13; lactam 2-7 via Sar, also called Compound No. 3) [GhR_PD_141]
1.79 | {CH2CO}-Y[NMeK]VVSN[Trp(1-CH2CO)]Y[KCOpipzaa][Trp(5-OH)][Aib]VCK([Glu-Glu-C16 diacid])-NH2 (thioether N-13; lactam 2-7, also called Compound No. 27) [GhR_PD_234]
1.59 | {CH2CO}-Y[NMeK]VVSN[Trp(1-CH2CO)][Phe(4-COOH)]K[Trp(5-OH)][Aib]VCK([Glu-Glu-Butanoyl(4-(4-I-phenyl))])-NH2 (thioether N-13; lactam 2-7, also called Compound No. 26) [GhR_PD_216]
3.36 | {CH2CO}-YKVVSN[Trp(5-OMe)]YK[Trp(5-OH)][A4pipaa]VC-NH2 (thioether N-13; not fully specified (residue 2); also: albumin binder E-4IPhpCO, attachment site not given here, No linker; also called Compound No. 45) [GhR_PD_205]
1.07 | {CH2CO}-Y[NMeK]VVSN[Trp(1-CH2CO)]YK[Trp(5-OH)][Aib]VCG-NH2 (thioether N-13; lactam 2-7 via P, also called Compound No. 4) [GhR_PD_142]
